Experimental data published in publication PMC2360737.

Legend:
[1] = target: p21 (human (endogenous in A2780)) (UniProt P38936); test: co-IP; endogenous proteins in crude lysates of A2780 cells, untreated or treated with 0.6 uM DAP (up to 36 h; also after control or p21 siRNA); immunoprecipitated with anti-CDK4, anti-CDK2, anti-p21 or anti-p27 antibody, immunoblotted
[2] = target: p27 (human (endogenous in A2780)) (UniProt P46527); test: as above
UniProt P46527, sequence (P46527 whole entry): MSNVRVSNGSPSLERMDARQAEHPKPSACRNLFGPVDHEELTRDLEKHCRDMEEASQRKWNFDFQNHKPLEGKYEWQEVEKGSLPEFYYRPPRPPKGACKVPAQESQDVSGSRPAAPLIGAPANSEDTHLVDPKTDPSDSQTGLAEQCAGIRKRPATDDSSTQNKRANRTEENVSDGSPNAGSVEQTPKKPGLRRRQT

cyclin E, sequence (P24864 whole entry): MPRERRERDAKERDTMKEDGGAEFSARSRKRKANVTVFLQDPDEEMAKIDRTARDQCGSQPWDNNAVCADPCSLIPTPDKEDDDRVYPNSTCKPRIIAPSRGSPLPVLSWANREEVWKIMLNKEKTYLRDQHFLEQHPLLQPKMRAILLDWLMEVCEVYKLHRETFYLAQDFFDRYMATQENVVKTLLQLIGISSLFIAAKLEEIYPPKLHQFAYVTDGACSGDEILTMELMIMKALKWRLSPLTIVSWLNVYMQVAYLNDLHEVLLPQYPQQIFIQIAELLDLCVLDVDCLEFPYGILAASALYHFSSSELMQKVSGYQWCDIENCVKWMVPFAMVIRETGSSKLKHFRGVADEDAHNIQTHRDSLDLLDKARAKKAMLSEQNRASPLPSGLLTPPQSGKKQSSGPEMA
UniProt P38936, sequence (P38936 whole entry): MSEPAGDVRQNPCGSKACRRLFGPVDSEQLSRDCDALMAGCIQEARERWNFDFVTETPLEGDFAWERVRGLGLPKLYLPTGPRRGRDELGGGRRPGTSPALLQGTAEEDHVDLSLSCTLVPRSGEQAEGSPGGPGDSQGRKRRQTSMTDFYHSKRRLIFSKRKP

## cyclin E (from UniProt P24864 1-410) (natural protein)
[1]
  fold of cyclin E co-precipitated with p21 against that with p27: 3 fold
  percent of CDK2/cyclin E complex bound: 75%
[2]
  percent of CDK2/cyclin E complex bound: 25%
